Laboratory results: the DeepSol protein solubility set

Assay: soluble on expression in E. coli; label from the status in PepcDB or PDB records

Row | Sequence | soluble on expression in E. coli
1 | MGSDKIHHHHHHMKESMSITSSTYASALLTLPWGTPLEQWPDNLIAALPRGISRHIVRFVGINRGIVAVKEIGARTAHHEYKMLRELQRLGAPSVRPVAVITGRHPAEEDYGELTAALVTEHLEFSLPYREIFSRHLTVVESEKLIRALSVLLVRMHLLNFYWGDVSLSNTLFRRDAETYSAYLVDAETGEFQPNLSESRRLYDVDIARVNIIGELMDLQAGECLDKSIDVIALGGLVESSYLELWTELTAEESVDASEYWRLSERIDRLNQLGFDVGELKVTKDDSRQVVRIRPVVVDPGHYRAELLSLTGLSVEEHQAQRLLGSIQAYQAVECGPHVGLTQAAHLWMTNEYEPTIAAVPVEMLDKLEPAQIFHEIVDHRWFLAQERGGAVTLPEATASYLESVLPARRDEARLLSTNPSDEDLS | not soluble
2 | MGSGKERDTFVYLAKLSEQAERYEEMVESMKSVAKLNVDLTVEERNLLSVGYKNVIGSRRASWRIFSSIEQKEAVKGNDVNVKRIKEYMEKVELELSNICIDIMSVLDEHLIPSASEGESTVFFNKMKGDYYRYLAEFKSGNERKEAADQSLKAYEIATTAAEAKLPPTHPIRLGLALNFSVFYYEIMNAPERACHLAKQAFDEAISELDTLNEESYKDSTLIMQLLRDNLTLWTSDISEEGGDDAHKTNGSAKPGAGGDDAE | soluble
3 | MAHHHHHHMGTLEAQTQGPGSMLYIIGLGLYDEKDITVRGLEAVKSCDLVFLEHYTAILQCDVAKLEEFYGKKVIIGDRDLVETEADQILEPAKTKNVALLVVGDVYGATTHSDIFVRCQKMGIEVKVIHNASIMNAIGCSGLQLYRFGQTVSVCFWSEHWRPSSYYPKIKINRDNNMHTLVLLDIKVKERSEESIIKGRDIFEPPRYMTINQCIEQLLEVEKEQHLGVYDEDTMVVGMARVACADQKIVYGKMKDLLHYDFGAPMHCLLIPAPQVDDPELDQLEYFKYKPE | soluble
4 | MGSDKIHHHHHHMNCKELQLSPELTQALGEGDVFSRVMALGGEVFRDVPGRKTVRVQLAGQPYFIKQHFGVGWGEIFKNLLAFKVPIVSANTEKQAIEKLGEIGIATTPLAGFGSRGCSPASRQSFLITHDLGDILSLETLADQWMQSPPEPRFKRRLLMEVATLAARLHDSGLNHRDFYICHICLDLPRLRHGDIHLYLIDLHRVGIRETIRPQDRMKDIAALYFSAMNAGLVTRDYLRFLRRYRGKPIRQVMREERDFWQQVQARAIKLYIKLHKVEPGLHQIGGMIG | not soluble
5 | GMYQTIEGFLQSWTYETESTQKMLDVLTDESLSQEIAPGHWTLGRVAWHIVTAIPVILSGTGLKFEGETKDYPVPTSAKTIADGYRKVNTAFVEALQSEWTDKDLTTINDFFGRPMPNSIFLMTLINHQNHHRGQMTVLMRQAGLTVPGVYGPAKEEWATAGMEAPKM | soluble
6 | MAHHHHHHMPFSLGELQNVFLDALTGCPPDAPQQTRDTAVTVAGASIFAGSWQPLESTRVPVRAYLRGTGEFDTEDSCRRAVMRVVDATLNDVLNDDAVNAFIGAKACESADIVGACEHILRKYLLWMLDGYLHYDGTPQCPFYDALKSTVCAFSVEWGQTFGPMFAEAQSPDEFFSLLVTRGAQHHATAVATNPDDAKVRMATAMSIQVFLMAKTYSPSTPFPSRVAL | soluble
7 | SEFVLKHTAFAHLREVGSFPCTLNPHEAESLALVGAMIDQVLELHPGAQRLHIGCDEVYYLGEGEASRRWLQQEQNSTGKLCLSHMRAVASGVKARRPSVTPLVWDDMLRDLPEDQLAASGVPQLVEPVLWDYTADLDVHGKVLLMQKYRRCGFPQLWAASAFKGATGPSQAVPPVEHHLRNHVQWLQVAGSGPTDSLQGIILTGWQRYDHYSVLCELLPAGVPSLAACLQLLLRGGFDEDVKAKVENLLGISSLEKTDPVREGAGSFPGSNILALVTQVSLHLRSSVDALLEGNRYVTGWFSPYHRQRKLIHPVMVQHIQPAALSLLAQWSTLVQELEAALQLAFYPDAVEEWLEENVHPSLQRLQALLQDLSEVSAPPLPPTSPGRDVAQDP | not soluble
8 | MGSDKIHHHHHHSEENESSGTIEMNQLPGTAQSFLSNYFPGQTPEKIERTNTDQENARLLYRVVFPNEVKVEFSENGGWKRLMIPDQKLPGSLDSLWGKIIEYVQQLFPDDPFIGIENACYGDCVLLSSGKKIAFYYDGTCIGYEMDIKDESGVPQPVRDFVATYFPDGVFQAVVEHIPNENVTAGYSFWLENGFKCVLNDRGQWTEVNGGTELLPVSILETLPAKVTEQLYRDYPAAQVTYIRLEGTCYTIQVSKTVYVTIDPESKPIVVPVMQAQALAEEYFGKLRSISISHPLHTDVLNFKVCLPNGFNMLVNEDASEWLNIDGNGFAFPEKLVASLPEKITEYISAHSNSEITRVDRSVAASFLVELTNGDGLMFDSQGGFLGKEKIELSISEKTYRYMRHQFPDDLNMYFSSYSIEGWIYKLGDGSQVRFDRDGNFVEMIAAAK | not soluble
9 | MNTVSPAKKKVIIIGAGIAGLKAASTLHQNGIQDCLVLEARDRVGGRLQTVTGYQGRKYDIGASWHHDTLTNPLFLEEAQLSLNDGRTRFVFDDDNFIYIDEERGRVDHDKELLLEIVDNEMSKFAELEFHQHLGVSDCSFFQLVMKYLLQRRQFLTNDQIRYLPQLCRYLELWHGLDWKLLSAKDTYFGHQGRNAFALNYDSVVQRIAQSFPQNWLKLSCEVKSITREPSKNVTVNCEDGTVYNADYVIITVPQSVLNLSVQPEKNLRGRIEFQPPLKPVIQDAFDKIHFGALGKVIFEFEECCWSNESSKIVTLANSTNEFVEIVRNAENLDELDSMLEREDSQKHTSVTCWSQPLFFVNLSKSTGVASFMMLMQAPLTNHIESIREDKERLFSFFQPVLNKIMKCLDSEDVIDGMRPIENIANANKPVLRNIIVSNWTRDPYSRGAYSACFPGDDPVDMVVAMSNGQDSRIRFAGEHTIMDGAGCAYGAWESGRREATRISDLLKLEHHHHHH | soluble
10 | MSIRRSDPLAQVSDFDIRLLRIFKSVVEAGGFSAAESALGIGRSAISQQMSDLEQRLGLRLCQRGRAGFSLTDEGREVYQSSLQLLSALESFRTEVNGLHQNLRGELNIGLTDNLVTLPHMRITHALSRLKERGPGVHINIRMIAPAEVEQGVLDGGLHVGVVPQASALPGLEYHSLYSERSLLYCAVGHPLFYAENTMLDDQRLALQEAVAPTFRLPNDIQEHYKALTCTASASDREGIAFLILTGRYIGYLPDHYANAWVQEGRLRALKPDAKFYDLNLVTVTRKGRRPHLVLEGFLEALAATR | not soluble
11 | MGSDKIHHHHHHMSNPLLKQICELDVFTLLVFKTIFDTGHANSAAKALDVSAPKISRCLNALRLTFNDELFYRRQQGLKPTPLAESLYAAICQFTNSVYNLEQSALQIQNTHNTTDLPLHIAVSNELLSFLAPQLSSPDVITQLGKIRLHKWQENSAELIHAGELDFGITLENADNKELSYTRLGCISGIYVVASKHHPIWQTELSITLEHICRHPFLCLDLKGFNSKVDPLEFFCQRQGILLPSIDRVIDREEWYAHLLTIQSVAFCSSIDMHTVKHMPGLKLVPLSLTELHRLHDSMLPPQYYLVEKPRARRRYSQTQCDIVVSPLITTLIPTL | not soluble
12 | MGSDKIHHHHHHMRVELNGILPVCPCSGRGYLDNARLFRQIEPIVRKQSPFMNSRSLLCLLAVSLCASPVWADTVWMKNGDRLSGKIKVFDGGKLLLETPYGGSIALDWKQVQTLESDQEMLVKQDAYSGEKAKSLKAAEAGKVTLANGDSPKTVALASIEQIMKPKPLVEDFVWKGNVDVALDYKRAENDTDDYDVGFKTTARHGRWRHNAEGEYNRETKDDVTTTNNWSAEYALDRFITDKWFWQGRAEYKRDHIEDLARQRTVGTGPGYQFWDDELGAFSLGSLINRTDFEYRDGGKDNFYSAAVKWDYTRYLIGKNVQLFTNGEFAKPLGGVADYSLDAEVGLRYKVTEWASLNLKAEKDIITGTRESDLDKTRYTAGFGVTW | not soluble
13 | SLQKLQAQGVHHITLVGAGRQTSIDFWEGVLGMPFIFEQPNLDKASESHLYFDPGDGRLITVFTDESRTPQKRRTPTDPGCVHHIAFAVSRVTFLQAVARLDERGIKHSGVKDRGFMDSIYFEDPLGLLIELASYRFEPPAGFTHADVLMQAHRLRVGRGDYNIAEVHLADAIQVLVESSREG | soluble
14 | MSLLLFQSLLRRGLLVAINFSPKVGEILECNFGNYPVSQNGPFSTTYYDGRIPPEMIKNRLVVVLNGKINGNAFIVVPLSTTRDHDKLKRGMHVEIASNVINDLQFFDQQIRWAKTDLVQQVSRNRLNRARTYRGYLNQCLPHELVADIQRAVIKSINAISLINEGHHHHHH | not soluble
15 | IQRQMFPNIEVNYIDVRATYPGASPQEIEESILVKVEESIKDVTGIKKVVSRASRGSAYISIEVDVNADIKRVLDDVNQRIDTISNLPLGMEPINVYQVEWRQDVIEMGLVGDRPLEELKPIAKQIEDELLQLNNVMLVYLSAPEEEIAIEVDPLVLRKYDLTLNDVSNAIRRYSANFSAGEVKTNSGMIAVRIENQYYRGDEFRNIPVKLGANGAKVLLQDIATIKDGFTEEERYFEYSGQNAIYMSVEATRDQNIIPVAQSVRDYIEAKNKTLPSDVQLKILVDMTYYLNGRLDMMLK | not soluble
16 | VRSYLLRIELADRPGSLGSLAVALGSVGADILSLDVVERGNGYAIDDLVVELPPGAMPDTLITAAEALNGVRVDSVRPHTGLLEAHRELELLDHVAAAEGATARLQVLVNEAPRVLRVSWCTVLRSSGGELHRLAGSPGAPETRANSAPWLPIERAAALDGGADWVPQAWRDMDTTMVAAPLGDTHTAVVLGRPGPEFRPSEVARLGYLAGIVATMLR | soluble
17 | SAHSKTRTNDGKITYPPGVKEISDKISKEEMVRRLKMVVKTFMDMDQDSEEEKELYLNLALHLASDFFLKHPDKDVRLLVACCLADIFRIYAPEAPYTSPDKLKASTDLNNSKIDRYFDLSF | soluble
18 | MGSDKIHHHHHHMDIKVITRHAPSNYGSLLQSIATITTLERLGHKCEIIDYIRDDEHGLSAVKTNLNNKQRWSGNSLKKLAYIVLRYPEEKKAELNFREMRRKYLKLTQLCRTHDDLKRLDADIFMTGSDQVWGPTLNGHYDEAYFLSFVKDKRKIAYAASLGRTDFTAKILSEYKKLLSSYSGIAVRENTAVGLLRQMDIECAGQVLDPTLLLTGDEWSRMIKKDMGGKYVLVYQLHNNPALSKYAVRFAEHVGLPLYRVSPTFHQIRRGGKFIYLPDLPDFLSYIKNSTYFITDSFHGTAFALNFNRQFIEILPNNKTGNRNQSILQLTRLQDRIVTDYADCSISERMIDYERVNDILRKERIRSLGILKQLLRQ | not soluble
19 | MGSDKIHHHHHHMTEDEAITQLRRFVAALESGSRRNANDAAFALLAGNPPLGDRWQSIAHVMQTNGEYSAAHLAMARFAAHRADPNARFAQAAMLAQTGQLEEAWKVMGSVPFGVPSVSGHHYIRGTIAVNLGHIEDAEKHLLAAIEAEPALGQAMLSLAAARKRKAGDPIGDRILSAEPRMEGAPPLERAHFHYAAGRVHFDRREPDEAFRHFSAGAELVRGWRSYDAAADARDAAECRQGFDRDFVDKINNLVTLDTSQPIFVTGLPRSGTTLVEQILVSHSAVSGGEELGRMGVVRRDLTSLSAKGLSDYLQAGGNADDLAALYLHLGQERFGKEGRFVDKALNTSRFTGLIAALLPHAPIVWLRRDPADCAFSAYRTYFINGLDWSWNLEDIATHFALEDQLFHHWSRMFPDRILAVDYQQLVQEPQAQIRRILAHCNLEEEPQVFRPHETQRVVSTASVMQVREPINTGAVGAAGAYRLHLAPFVDRYEALSAAT | not soluble
20 | MAETNKGIEEEVASAFVNHYYHLFDNDRSSLSSLYNPTSLLTFEGQTIYGVDNISNKLKQLPFDQCHHLISTVDSQPSSMAGGCGGILVFVSGSIQLHGEDHPLRFSQVYLLSICNRFEGFIWLKQS | not soluble
